Consider two substances from US20250003958A1.

The target of experiment [1] is CD8 on CD8-positive cells (PBMCs in Example 1, Immuno-Trol cells in Example 3) (UniProt P01732). Nature of the experiment: negative control; magnetic bead depletion of Immuno-Trol cells, flow cytometry of the supernatant (41% before addition of beads).
The target is the same in experiment [2]. Briefly: negative control; magnetic bead depletion of Immuno-Trol cells, flow cytometry of the supernatant (59% before addition of beads). On the technique in general: Flow cytometry measures light scatter and fluorescence of single cells or particles in a stream.
Experiment [3] addresses CD4 on CD4-positive cells (PBMCs) (UniProt P01730). Nature of the experiment: negative control; magnetic bead depletion of PBMCs, flow cytometry of the supernatant (18% before addition of beads).
For experiment [4], the target named is CD8 on CD8-positive cells (PBMCs in Example 1, Immuno-Trol cells in Example 3) (UniProt P01732). Nature of the experiment: negative control; cells trapped by beads, released with DNase I, flow cytometry.
For experiment [5], the target named is CD4 on CD4-positive cells (PBMCs) (UniProt P01730). The experiment is described as above.
Experiment [6] concerns the target CD8 on CD8-positive cells (PBMCs in Example 1, Immuno-Trol cells in Example 3) (UniProt P01732). Briefly: negative control; magnetic bead depletion of PBMCs, flow cytometry of the supernatant (28% before addition of beads).
Experiment [7] concerns the target CD4 on CD4-positive cells (PBMCs) (UniProt P01730). Briefly: negative control; magnetic bead depletion of PBMCs, flow cytometry of the supernatant (82% before addition of beads).
In experiment [8] the target is CD8 on CD8-positive cells (PBMCs in Example 1, Immuno-Trol cells in Example 3) (UniProt P01732). Briefly: negative control; magnetic bead depletion of PBMCs, flow cytometry of the supernatant (72% before addition of beads).

Sequence of UniProt P01732 (P01732 22-235): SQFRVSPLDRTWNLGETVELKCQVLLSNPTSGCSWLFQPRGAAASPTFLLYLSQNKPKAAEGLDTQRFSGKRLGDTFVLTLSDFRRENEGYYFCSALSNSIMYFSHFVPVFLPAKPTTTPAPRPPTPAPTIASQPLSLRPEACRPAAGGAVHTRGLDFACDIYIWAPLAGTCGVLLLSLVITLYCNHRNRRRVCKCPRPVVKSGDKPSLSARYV

In the case of “Control antibody (Biolegend), held on streptavidin magnetic beads through oligo-DNA-modified Protein A/G”, the Ratio of CD3-positive and CD4-negative cells remaining in the supernatant in experiment [1] turned out to be 39%. Moreover, in experiment [2], the Ratio of CD3-positive and CD4-positive cells remaining in the supernatant turned out to be 61%.

Take “Isotype Control antibody (Biolegend), modified with FITC-introduced synthetic oligo-DNA linker and immobilized on streptavidin magnetic beads”: the Ratio of CD3-positive and CD8-positive cells remaining in the supernatant in experiment [3] is 19%. Also, the Ratio of FITC-positive cells was 19% in experiment [4] and 26% in experiment [5]. Moreover, the Ratio of CD3-positive and CD4-negative cells remaining in the supernatant in experiment [6] was found to be 33%. Also, the Ratio of CD3-positive and CD8-negative cells remaining in the supernatant in experiment [7] turned out to be 81%. Further, the Ratio of CD3-positive and CD4-positive cells remaining in the supernatant in experiment [8] is 67%.
